From the supplement of paper PMC9112550, “Optimization of the antimicrobial peptide Bac7 by deep mutational scanning” (BMC Biology, 2022)

test system: Escherichia coli TOP10; assay: shrunken log2 fold change of peptide-encoding DNA abundance (4.5 h post-induction vs induction); higher = less antimicrobial activity (less host growth inhibition); details: time post-induction: 4.5 h; library: site-saturation at positions 5, 18, 19, 20
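Further: peptides expressed intracellularly from a pBAD plasmid library in pooled LB shake-flask culture, induced with 0.3% L-arabinose, DNA abundance read by NGS, three biological replicates, DESeq2 with apeglm shrinkage.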

Row | Sequence | shrunken log2 fold change
1 | RRIRLRPPRLPRPRPRPYKHPRP | -0.619
2 | RRIRVRPPRLPRPRPRPMENPRP | -0.0625
3 | RRIRFRPPRLPRPRPRPHKIPRP | -0.495
4 | RRIRLRPPRLPRPRPRPEQRPRP | 0.0422
5 | RRIRERPPRLPRPRPRPARQPRP | 0.0428
6 | RRIRERPPRLPRPRPRPACAPRP | 0.455
7 | RRIRFRPPRLPRPRPRPKAHPRP | -0.0835
8 | RRIRDRPPRLPRPRPRPVVTPRP | 0.689
9 | RRIRLRPPRLPRPRPRPYMWPRP | -1.05
10 | RRIRDRPPRLPRPRPRPPHAPRP | 0.631
11 | RRIRHRPPRLPRPRPRPHHMPRP | -0.324
12 | RRIRKRPPRLPRPRPRPYFEPRP | -0.584
13 | RRIRFRPPRLPRPRPRPWVTPRP | -0.0635
14 | RRIRTRPPRLPRPRPRPHFGPRP | -0.00836
15 | RRIRCRPPRLPRPRPRPGWLPRP | 0.801
16 | RRIRVRPPRLPRPRPRPTMYPRP | -0.245
17 | RRIRDRPPRLPRPRPRPSMGPRP | -0.11
18 | RRIRLRPPRLPRPRPRPLAGPRP | 0.0705
19 | RRIRHRPPRLPRPRPRPNIIPRP | -0.307
20 | RRIRDRPPRLPRPRPRPWWGPRP | -0.00301
21 | RRIRDRPPRLPRPRPRPEWKPRP | -0.0135
22 | RRIRSRPPRLPRPRPRPQCLPRP | -0.208
23 | RRIRSRPPRLPRPRPRPFYYPRP | -0.615
24 | RRIRLRPPRLPRPRPRPTHMPRP | 0.0883
25 | RRIRYRPPRLPRPRPRPWDSPRP | -0.00191

Row | Sequence | shrunken log2 fold change
26 | RRIRIRPPRLPRPRPRPSECPRP | -0.00498
27 | RRIRMRPPRLPRPRPRPQARPRP | 0.575
28 | RRIRARPPRLPRPRPRPPPHPRP | 1.03
29 | RRIRDRPPRLPRPRPRPMVWPRP | 0.851
30 | RRIRCRPPRLPRPRPRPWVSPRP | -0.463
31 | RRIRLRPPRLPRPRPRPHRMPRP | -0.0961
32 | RRIRLRPPRLPRPRPRPQFNPRP | -0.57
33 | RRIRGRPPRLPRPRPRPRLFPRP | 1.11
34 | RRIRQRPPRLPRPRPRPWFFPRP | -0.0396
35 | RRIRNRPPRLPRPRPRPLTIPRP | -0.389
36 | RRIRPRPPRLPRPRPRPWTTPRP | -0.012
37 | RRIRYRPPRLPRPRPRPWTKPRP | -0.319
38 | RRIRWRPPRLPRPRPRPHPHPRP | -0.0616
39 | RRIRNRPPRLPRPRPRPSMDPRP | 0.00334
40 | RRIRKRPPRLPRPRPRPANEPRP | 0.151
41 | RRIRVRPPRLPRPRPRPTTVPRP | -0.241
42 | RRIRNRPPRLPRPRPRPFMWPRP | -0.134
43 | RRIRWRPPRLPRPRPRPDLMPRP | 0.325
44 | RRIRGRPPRLPRPRPRPLKPPRP | 0.609
45 | RRIRHRPPRLPRPRPRPLAKPRP | 0.107
46 | RRIRERPPRLPRPRPRPAGVPRP | 0.157
47 | RRIRNRPPRLPRPRPRPHHKPRP | -0.461
48 | RRIRLRPPRLPRPRPRPPKHPRP | 0.117
49 | RRIRKRPPRLPRPRPRPDLYPRP | -0.00937
50 | RRIRTRPPRLPRPRPRPQSIPRP | -0.125

Row | Sequence | shrunken log2 fold change
51 | RRIRSRPPRLPRPRPRPPPAPRP | 1.04
52 | RRIRWRPPRLPRPRPRPGKMPRP | 0.0641
53 | RRIRSRPPRLPRPRPRPQTDPRP | -0.0826
54 | RRIRGRPPRLPRPRPRPDRTPRP | -0.0561
55 | RRIRSRPPRLPRPRPRPYQMPRP | -0.557
56 | RRIRNRPPRLPRPRPRPHKSPRP | -0.298
57 | RRIRCRPPRLPRPRPRPIRWPRP | 0.034
58 | RRIRGRPPRLPRPRPRPIHSPRP | -0.441
59 | RRIRSRPPRLPRPRPRPNKQPRP | -0.221
60 | RRIRMRPPRLPRPRPRPRECPRP | 0.0611
61 | RRIRDRPPRLPRPRPRPAERPRP | -0.0412
62 | RRIRFRPPRLPRPRPRPSTRPRP | -0.013
63 | RRIRLRPPRLPRPRPRPPYTPRP | -0.674
64 | RRIRCRPPRLPRPRPRPTFWPRP | 0.174
65 | RRIRQRPPRLPRPRPRPCFFPRP | -0.101
66 | RRIRCRPPRLPRPRPRPIMHPRP | -0.135
67 | RRIRGRPPRLPRPRPRPPFMPRP | 0.557
68 | RRIRARPPRLPRPRPRPNTNPRP | -0.0214
69 | RRIRERPPRLPRPRPRPNIIPRP | -0.338
70 | RRIRARPPRLPRPRPRPKNCPRP | -0.245
71 | RRIRCRPPRLPRPRPRPNWKPRP | 0.0151
72 | RRIRMRPPRLPRPRPRPWKKPRP | 0.234
73 | RRIRYRPPRLPRPRPRPFYMPRP | -0.258
74 | RRIRCRPPRLPRPRPRPSLQPRP | -0.455
75 | RRIRHRPPRLPRPRPRPVAMPRP | -0.123
